Among the data in a protein production outcome set (Wang et al. 2014) are protein production values, retold here.

This data set can be described thus: label from the status in PepcDB records.
“MMDAMTDPITFAATAAGRDAAHPLRDISFGEIGIATERKPDGTIYVRSTTTLTDYPVRITDRLHHFAETAPDRVFMAERNGEGGWRRISYAEMLRAAQTIASALIARGLSAERPVMILSGNSIDHAMVMFGALYAGVAMCPVSPPYSLVSKDYGKLRHIVGLLTPGLIFADDITAFAPAILATVPEDVELAATRGEVKGRKVTSLAELLATPEHPELAAKHEAIGHDTIAKFLLTSGSTGNPKAVINTQRMICANQVMIREAMAFLKDEPPVIVDWLPWNHTFGGNHNIGLTLFNGGSMYIDDGKPTPAGIASTIRNLREIAPTVYFNVPKGYESLLPVLREDQQLRKLFFSRLHAMFFSGASLAAHVWNGLDEVAVAETGARVPMLTGLGATETAPFFMSVTPQTSRSGHVGLPVPGNEAKLVPNNGKLEVRAKGPNITPGYWRAPELTDKAFDEEGFYKLNDALKPVDANDLSRGFDFDGRISEDFKLASGTWVSVGPLRAKFIAACASLVRDVVIAGLDRDYVTALAILDPDGCKLINATLPLEDLAGMAADHLIREAFRERFATLLTQATGSSNRVTRAVLLGEPLSIDKGEITDKGSVNQRAVLEYRASLIADLYADPPPAHVIALELEHHHHHH”: the protein production entry is on record as “not failed”.
The value for “MSLRIRVPATTANLGPGFDSCGLALTLYLTLDIGAEADSWYIEHNIGGGIPHDETNVIIETALNLAPNLTPHHLVMTCDIPPARGLGSSSAAVVAGIELANTLAELNLSKEEKVRIAAEIEGHPDNVAPAVLGNWVVGAKLDGEDFYVRHLFPDCALIAFIPKAELLTSESRGVLPDTLPFKEAVQASSIANVMIAAILRNDMALAGEMMERDLWHEKYRSQLVPHLTQIRDVAKSQGAYAACLSGAGPTVLVFAPRNLANTLQTSLQTLEIDADVLLLDVEGSGAEVFREGHHHHHH” was “not failed”; that for “RTALRTEYALRQEAQAARKHAEGILASISDGFIALDEQYRFTYVNAAAERLIASTAEELIGKVYWDVYPMMLGTKIEQAYRRAMTERVACEFESYHPPSKRWFELRVAPTNGKSISVYFRDITEQKKAEAALRDINEQLEEQV” was “failed”.
For “MTVEPFRNEPIETFQTEEARRAMREALRRVREEFGRHYPLYIGGEWVDTKERMVSLNPSAPSEVVGTTAKAGKAEAEAALEAAWKAFKTWKDWPQEDRSRLLLKAAALMRRRKRELEATLVYEVGKNWVEASADVAEAIDFIEYYARAALRYRYPAVEVVPYPGEDNESFYVPLGAGVVIAPWNFPVAIFTGMIVGPVAVGNTVIAKPAEDAVVVGAKVFEIFHEAGFPPGVVNFLPGVGEEVGAYLVEHPRIRFINFTGSLEVGLKIYEAAGRLAPGQTWFKRAYVETGGKDAIIVDETADFDLAAEGVVVSAYGFQGQKCSAASRLILTQGAYEPVLERVLKRAERLSVGPAEENPDLGPVVSAEQERKVLSYIEIGKNEGQLVLGGKRLEGEGYFIAPTVFTEVPPKARIAQEEIFGPVLSVIRVKDFAEALEVANDTPYGLTGGVYSRKREHLEWARREFHVGNLYFNRKITGALVGVQPFGGFKLSGTNAKTGALDYLRLFLEMKAVAERF” the value was “not failed”; for “MTQAFSRVRFIMTQPSHPGNVGSAARAIKTMGFGELVLVAPRFPDMTAQPEAVALASGALDVLERAAVHDTLEEALAPVTLAFALTTRVRDLGPPPCDIREAAGLARRHLDDTEAGVVAIVLGTERAGLTNAQIELCHRICHIPANPQYSSLNVAQALQLAAWELRYALLAGTGQSLLPASSAQQANPGAAPADGAAVQALLAHWEQALVAVGFLDPAHPKKLMPRMKHLLTRSALSRDEVDMLRGVCTAMIAPNRPK”, “not failed”.
The value for “MHPFRWQRSRQRSSALSFLKKAFYQIPVIGWLVKDAAHGSPEAPYFFLFNAVVVGAALIYTFGYPLVITVAVAGAFAGIAGLVVLTAGDAFDKRAKQPATDVRRAKTATVRPLKKAA” was “failed”; that for “MARFDRYLLSQLVALFGFFSLVLVLVYWINRAVGLFDDLISDGQSALVFLEFSLLALPNVIRLVLPLSAFAATIYVVNRLSQESELVVMQATGFSAFRLARPVIWFGLIVALMMIVLMNLLVPASRATLSARSAEISQNATARFLRDGEFLHPADGVTLYIREVTETGELRDLLLVDDRDPARSTAYTARRALLVRTDTTPKLLMIDGSAQTLTREGRRLELTRFDDVTYDLGAFMTGSGPKRRVLEELPTMTLLAPTAEVLEETRSTRAAALYEGHSRIGQPFLGFASSLIGFAALLLGSFSRFGLWWQILFAVLLLIVVQTINVAASGVGVTDEQLWPLAYAAPVTGFAIGILLLWIGQRPRRLRRALNGIFAS” was “failed”.
On to “MPVTETIPLHETARERYLNYALSVITSRALPDIRDGLKPVQRRILFAMFDSLNLYPSKRHRKSATVVGETMGKYHPHGDKAIYDAMVRMAQSFSLRAPLVDGHGNFGSLDGDSAAAMRYTEAKLQPLAMEMLEGLRDETVDYRDNFDGSLEEPVVLPARVPNLLVNGASGIAVGMATNIPPHNLGEVVDAALHMIEEPEVDTSTLVRDHIQGPDFPTGGRILNTQDELAEIYETGSGTIEMRGAYRTKGKTRAIIESVPYGVDKSKIVEEIADHIAEENVPQLSNVRDESTDDVRIVLELKRGSDTEAAMAYLFKHTKLQKRFHVNLTCLVPTESTDVKAPKQVDLRTILRYFLDFRLDVVTRRLQNELAELEARIHILEGFETIFDALDEAIEIIRASKNKADAAQRLMHRFQLDEEQTDAILETQLYKLSQMEIEAIRDELGEKRARAEGIRRLLDDEDARWGIVKDELQDIRDEYTDERRSTLVGPGADMEYTEEDYIVDEDVHVIVTRDGWVKRQGTYSDLDAIRTRDGDEVGWALAGSTRATVGFFTNYGTCYTTRITEIPSTTGYGDPVQKLFSFDDGEHVVGVVSFDDRALPDPVPAEPSEQGELFDPDDPDAPDQPYVVAISKGGQATRFTLDGYLEPSISTGRKYMRLEDGDEVARVHLARGDENICLASHDGRALVFPVHQVSVYKGPAKGVRAIRLEDNDRVLDFALSTRARDGLTVETNNGREEIVRTTKFDATNRGAKGTLVIKRGYFAEVFPEPVEVPLHEAA”, for which the protein production result is reported as “failed”.
With “MIERGRLGAASRRRATSAHGPIQTTVFMSSGIVFHAVAALAYAVLAGSLWRRLQGRGSVDQASKLTRTGLLGALALHGVALQQAMLGTQHLYIGWALALSAAVWLGLVVFWLESLLIRIDGLQLLLLPAAAIVTAIAALFPQAQLVPHANNPWLRAHLLIALAAYGLITIAALHAMLIALLDRHLHRPLDAPAERSIVGRVLDAQPPLLVQERLLFRVIWIGFVVLTLAVGSGSVASITLTGKFLPFDHKTIFTLLSWATFGVLLLGRHIRGWRGRVALRWTLTGFAFLILAYTGSRFVLEVILHRG”, the protein production result is “failed”.
For “MVEEVQKHSVHTLVFRSLKRTHDMFVADNGKPVPLDEESHKRKMAIKLRNEYGPVLHMPTSKENLKEKGPQNAPDSYPHKQYPANQGQDVEYLVTGTHPYPPGPGVALTADTKIQRMPSESAAQSLAVALPSQTRVDANRTAPAGSEYRHPGASDRSQPTAMNSMIMETSNTKNSALMAKKAPTMPKPQWHPPWKLYRVISGHLGWVRCIAVEPGNQWFVTGSADRTIKIWDLASGKLKLSLTGHISTVRGVIVSTRSPYLFSCGEDKQVKCWDLEYNKVIRHYHGHLSAVYGLDLHPTIDVLVTCSRDSTARIWDVRTKASVHTLSGHTNAVATVRCQAAEPQIITGSHDTTIRLWDLVAGKTRVTLTNHKKSVRAVVLHPLHYTFASGSPDNIKQWKFPDGGFIQNLSGHNAIINTLAVNTDGVLVSGADNGTMHLWDWRTGYNFQRVHAAVQPGSLDSESGIFACAFDRSESRLLTAEADKTIKVYREDETATEETHPVSWKPEIIKRKRF” the value was “failed”; for “MGHHHHHHSHMGKITFYEDRAFQGRSYETTTDCPNLQPYFSRCNSIRVESGCWMLYERPNYQGQQYLLRRGEYPDYQQWMGLSDSIRSCCLIPQTVSHRLRLYEREDHKGLMMELSEDCPSIQDRFHLSEIRSLHVLEGCWVLYELPNYRGRQYLLRPQEYRRCQDWGAMDAKAGSLRRVVDLY”, “not failed”; for “MKFEGIYTPAITPLSADGSIDTQAFAEVLEFLVESKVHGIVIGGSTGEYYAHTAEERLALAAHASEVIAGRLPLVVGTGAIRTEDSLAYAEAARAIGADAILVGSPPYALPTSREIAEHVLAVDRAAGLPIMLYNYPARMGVEMDEAFFAAVAGCRNIVAIKESSGSTAQLHRLACRHPRIALSCGWDDQALEFFAWGARSWVCAGSNFIPGEHLALYQACVVENDFAKGRRIMAAMMPLMDFLESGHFVQSIKHGCELAGLRAGGVRAPLKALDEAGKAALAEIVARLKGEVAR”, “failed”.
